Measurements reported in article doi:10.1101/2025.09.29.679187 (bioRxiv, 2025).

Target: 6xHis-PDE6D (UniProt O43924 1-150)
Test: fluorescence polarisation

Sequence of 6xHis-PDE6D (O43924 whole entry): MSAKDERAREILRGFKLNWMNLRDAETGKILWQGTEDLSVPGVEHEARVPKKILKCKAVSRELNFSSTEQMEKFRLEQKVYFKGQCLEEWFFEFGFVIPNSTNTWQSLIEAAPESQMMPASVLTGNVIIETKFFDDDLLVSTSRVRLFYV

Kd: 200 nM
B1: Wild-type K-Ras peptide (FAM-KKKKKKSKTKC-Far-OMe) (peptide)
peptide: KKKKKKSKTKC
modifications: FAM on the N-terminus; C-terminal cysteine farnesylated (Far) and carboxymethylated (OMe)
